{
  "source": "patent US20170137467A1",
  "about": "(CHROMOTEK, published 2017)",
  "binders": {"B1": {"name": "BC2-NbC50A_C102S (VHH)", "VHH": "QVQLVESGGGLVQPGGSLTLSCTASGFTLDHYDIGWFRQAPGKEREGVSAINNSDDDTYYADSVKGRFTIFMDNAKDTVYLQMNSLKPEDTAIYYCAEARGSKRGRYEYDFWGQGTQVTVSS", "notes": "Mutant without the additional disulfide bond between CDR3 and FR2"}, "B2": {"name": "BC2-NbAF488 (VHH)", "VHH": "B1 VHH with A50C, S102C", "modifications": "AlexaFluor488 coupled chemically with the NHS-activated dye (sites not given)", "notes": "also called BC2-Nb488; fluorescently labeled BC2-Nb (AlexaFluor488); not shown: C-terminal 6xHis-tag added by the pHEN6 vector"}, "B3": {"name": "BC2-NbATTO647 (VHH)", "VHH": "B1 VHH with A50C, S102C", "modifications": "Atto647 coupled chemically with the NHS-activated dye (sites not given)", "notes": "also called fluorescently labeled BC2-Nb (ATTO647); not shown: C-terminal 6xHis-tag added by the pHEN6 vector"}, "B4": {"name": "BC2-Nb(R106S) (VHH)", "VHH": "B1 VHH with A50C, S102C, R106S", "notes": "Headlock mutant; immobilized on beads in the library pulldown"}, "B5": {"name": "BC2 nanobody (BC2-Nb) (VHH)", "VHH": "B1 VHH with A50C, S102C", "notes": "Alpaca VHH, 122 aa; in solution at 5-50 nM in the BLI assay"}},
  "key": {"[1]": {"molecular_target": "T1, GFP with a C-terminal BC2 tag (GFPBC2T) (human, UniProt P42212 1-238 = GFP)", "T1 construct": "Expressed in E. coli; also called C-terminally BC2-tagged GFP", "experiment": "binding studies with GFPBC2T"}, "[2]": {"molecular_target": "T2, eGFP-PCNA with C-terminal BC2 tag (eGFP-PCNABC2T) (human, UniProt P12004 1-261)", "T2 construct": "Expressed in HEK293T or HeLa cells; not shown: eGFP", "T2 sequence (P12004 other isoform, or with tags, fused parts or gaps limits assumed)": "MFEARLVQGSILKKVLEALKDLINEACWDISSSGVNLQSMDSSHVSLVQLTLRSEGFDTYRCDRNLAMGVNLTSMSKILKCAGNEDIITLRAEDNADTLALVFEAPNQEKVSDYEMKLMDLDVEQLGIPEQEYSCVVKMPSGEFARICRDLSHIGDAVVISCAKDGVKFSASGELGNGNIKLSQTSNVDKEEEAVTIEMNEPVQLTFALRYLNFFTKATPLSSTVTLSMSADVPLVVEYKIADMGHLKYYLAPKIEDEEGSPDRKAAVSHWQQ", "experiment": "Western blot probed with BC2-NbAF488"}, "[3]": {"molecular_target": "T3, mCherry-Vimentin (untagged) (UniProt P08670 1-466)", "T3 construct": "Control without the BC2 tag; not shown: mCherry fluorescent protein", "experiment": "Western blot probed with BC2-NbAF488"}, "[4]": {"molecular_target": "T4, mCherry-Vimentin with C-terminal BC2 tag (mCherry-VIMBC2T) (human, UniProt P08670 1-466)", "T4 construct": "Expressed in HEK293T or HeLa cells; also called mCherry-VimentinBC2T; not shown: mCherry fluorescent protein", "T4 sequence (P08670 other isoform, or with tags, fused parts or gaps)": "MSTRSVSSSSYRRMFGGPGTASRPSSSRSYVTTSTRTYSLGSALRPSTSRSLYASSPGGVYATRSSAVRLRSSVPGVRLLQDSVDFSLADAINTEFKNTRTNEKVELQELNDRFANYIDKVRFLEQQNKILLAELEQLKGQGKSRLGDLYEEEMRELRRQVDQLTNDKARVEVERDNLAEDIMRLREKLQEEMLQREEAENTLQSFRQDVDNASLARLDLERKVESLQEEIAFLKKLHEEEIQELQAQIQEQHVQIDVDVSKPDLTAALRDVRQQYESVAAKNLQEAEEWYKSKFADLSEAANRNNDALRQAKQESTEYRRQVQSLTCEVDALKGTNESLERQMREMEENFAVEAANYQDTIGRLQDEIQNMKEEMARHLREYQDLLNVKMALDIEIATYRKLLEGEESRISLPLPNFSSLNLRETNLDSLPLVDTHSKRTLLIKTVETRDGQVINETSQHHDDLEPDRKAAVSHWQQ", "experiment": "Western blot probed with BC2-NbAF488"}, "[5]": {"molecular_target": "T2, eGFP-PCNA with C-terminal BC2 tag …", "experiment": "immunocytochemistry on fixed HeLa cells expressing GFP-PCNABC2T", "experimental": "After 24 h, cells were washed once with PBS and fixed with 4% w/v paraformaldehyde (PFA) in PBS for 15 min at RT or with methanol for 15 min at −20° C. After removal of the fixative and washing twice with PBS, cells were blocked and permeabilized with 3% w/v BSA and 0.1% v/v Triton X-100 in PBS for 1 h at RT. […] Unbound nanobody and DAPI were removed by washing 3 times with a mixture of PBS and 6% v/v 5 M NaCl in H₂O. Images of FIG. 4 b and FIG. 10 b were acquired with an Image Xpress micro XL system. Confocal images of FIG. 10 a were acquired with an ImageXpress Micro Confocal."}, "[6]": {"molecular_target": "T5, BC2T Q12D library peptide (human)", "T5 peptide": "Ac-PDRKAAVSHWQD-NH2", "experiment": "peptide library pulldown on immobilized Nb, LC-MS of supernatant; ratio vs GFP-Nb control (1 = not captured, 0 = captured)", "source_text": "(§1) In total, 12 different BC2T libraries displaying all 20 proteinogenic amino acids in one single position of the peptide were used in immunoprecipitation experiments. […] The direct comparison with the GFP-Nb made it possible to determine the quantitative degree of peptide capture without the need of labeled standards. […] The more peptide was captured the more the value approximates 0. It was not possible to discriminate between isoleucine (I) and leucine (L) peptide versions since these peptides are isobaric.\n(§2) To investigate the binding specificity of the BC2T and derived mutants peptide libraries for each amino acid position of the sequence […] (SEQ ID NO:4) were synthesized with acetyl and amide groups located at the N-termini or C-termini respectively (Intavis). […] Incubations were performed in 300 μl PBS/0.01% CHAPS for 1 h on a HulaMixer (Life Technologies). Subsequent to a centrifugation step 10 μl supernatant were analyzed in a LC-MS procedure. Peptides were separated using an UltiMate3000 RSLCnano System (Thermo Scientific), composed of a C18 PepMap100μ-Precolumn (300 μm×5 mm; particle size: 5 μm; pore size: 100 Å—Thermo Scientific) and a C18 analytical column (Acclaim Rapid Separation LC (RSLC) Column: 150 mm×5 mm; particle size: 2.2 μm; pore size: 100 Å—Thermo Scientific). A step gradient was applied starting at 8% and ending after 20 min at 30% eluent B (80% acetonitrile, 20% H₂O, 0.1% formic acid)."}, "[7]": {"molecular_target": "T6, BC2T Q12E library peptide (human)", "T6 peptide": "Ac-PDRKAAVSHWQE-NH2", "experiment": "peptide library pulldown on immobilized Nb, LC-MS of supernatant; ratio vs GFP-Nb control (1 = not captured, 0 = captured)", "source_text": "as §1, §2"}, "[8]": {"molecular_target": "T7, BC2T Q11E library peptide (human)", "T7 peptide": "Ac-PDRKAAVSHWEQ-NH2", "experiment": "peptide library pulldown on immobilized Nb, LC-MS of supernatant; ratio vs GFP-Nb control (1 = not captured, 0 = captured)", "source_text": "as §1, §2"}, "[9]": {"molecular_target": "T8, BC2T Q11D library peptide (human)", "T8 peptide": "Ac-PDRKAAVSHWDQ-NH2", "experiment": "peptide library pulldown on immobilized Nb, LC-MS of supernatant; ratio vs GFP-Nb control (1 = not captured, 0 = captured)", "source_text": "as §1, §2"}, "[10]": {"molecular_target": "T9, BC2T W10E library peptide (human)", "T9 construct": "also called BC2TW10X: E", "T9 peptide": "Ac-PDRKAAVSHEQQ-NH2", "experiment": "peptide library pulldown on immobilized Nb, LC-MS of supernatant; ratio vs GFP-Nb control (1 = not captured, 0 = captured)", "source_text": "as §1, §2"}, "BC2T H9E library peptide": {"molecular_target": "T10, BC2T H9E library peptide (human)", "T10 peptide": "Ac-PDRKAAVSEWQQ-NH2", "experiment": "peptide library pulldown on immobilized Nb, LC-MS of supernatant; ratio vs GFP-Nb control (1 = not captured, 0 = captured)", "source_text": "as §1, §2"}, "[11]": {"molecular_target": "T11, BC2T W10D library peptide (human)", "T11 construct": "also called BC2TW10X: D", "T11 peptide": "Ac-PDRKAAVSHDQQ-NH2", "experiment": "peptide library pulldown on immobilized Nb, LC-MS of supernatant; ratio vs GFP-Nb control (1 = not captured, 0 = captured)", "source_text": "as §1, §2"}, "BC2T H9D library peptide": {"molecular_target": "T12, BC2T H9D library peptide (human)", "T12 peptide": "Ac-PDRKAAVSDWQQ-NH2", "experiment": "peptide library pulldown on immobilized Nb, LC-MS of supernatant; ratio vs GFP-Nb control (1 = not captured, 0 = captured)", "source_text": "as §1, §2"}, "BC2T S8D library peptide": {"molecular_target": "T13, BC2T S8D library peptide (human)", "T13 construct": "also called BC2TS8X: D", "T13 peptide": "Ac-PDRKAAVDHWQQ-NH2", "experiment": "peptide library pulldown on immobilized Nb, LC-MS of supernatant; ratio vs GFP-Nb control (1 = not captured, 0 = captured)", "source_text": "as §1, §2"}, "BC2T S8E library peptide": {"molecular_target": "T14, BC2T S8E library peptide (human)", "T14 construct": "also called BC2TS8X: E", "T14 peptide": "Ac-PDRKAAVEHWQQ-NH2", "experiment": "peptide library pulldown on immobilized Nb, LC-MS of supernatant; ratio vs GFP-Nb control (1 = not captured, 0 = captured)", "source_text": "as §1, §2"}, "[12]": {"molecular_target": "T15, pTag2 peptide (biotinylated) (reading uncertain)", "T15 construct": "Immobilised on streptavidin biosensors", "T15 peptide": "{Biotin-ethylene glycol linker}-ADRVRAVSHWSS", "experiment": "BLI, biotinylated peptide on streptavidin biosensor, BC2-Nb in solution, 1:1 model", "experimental": "(§3) Biolayer interferometry (BLI)-based affinity measurements were used to assess two improved variations of the original BC2T sequence (a: […], pTag1 SEQ ID NO:33; b: […], pTag2 SEQ ID NO:34) in comparison with the original BC2T sequence (c: BC2T SEQ ID NO:4).\n(§4) The shaking rate was 1200 rpm. As a reference, each peptide was also incubated with BLItz buffer only according to the protocol above. […] The sensor was regenerated by sequential dips into 10 mM glycine pH 2.0 and BLItz buffer (repeated three times). Raw data were analysed using the software BLItz Pro (fortéBio) and a 1:1 binding model."}, "[13]": {"molecular_target": "T16, pTag1 peptide (biotinylated) (reading uncertain)", "T16 construct": "Immobilised on streptavidin biosensors", "T16 peptide": "{Biotin-ethylene glycol linker}-PDRVRAVSHWSS", "experiment": "BLI, biotinylated peptide on streptavidin biosensor, BC2-Nb in solution, 1:1 model", "experimental": "as §3, §4"}, "[14]": {"molecular_target": "T17, BC2T peptide (biotinylated) (human, reading uncertain)", "T17 construct": "Immobilised on streptavidin biosensors; also called original BC2T; wildtype BC2T", "T17 peptide": "{Biotin-ethylene glycol linker}-PDRKAAVSHWQQ", "experiment": "BLI, biotinylated peptide on streptavidin biosensor, BC2-Nb in solution, 1:1 model", "experimental": "as §3, §4"}},
  "note": "Substitutions are numbered along the chain they refer to. Names and notes keep the numbering of the source. Ends that are not written are not given here. * marks the point of attachment. Biotin = O=C1N[C@H]2[C@H](CS[C@H]2CCCCC(=O)*)N1; ethylene glycol linker = not defined here",
  "data": [
    {"binder": "B1", "values": [
      {"measurement": "binding result", "setting": "[1]", "result": "no binding"}
    ]},
    {"binder": "B2", "values": [
      {"measurement": "binding result", "setting": "[2]", "result": "binds"},
      {"measurement": "binding result", "setting": "[3]", "result": "no binding"},
      {"measurement": "binding result", "setting": "[4]", "result": "binds"}
    ]},
    {"binder": "B3", "values": [
      {"measurement": "binding result", "setting": "[5]", "result": "binds"}
    ]},
    {"binder": "B4", "values": [
      {"measurement": "ratio", "setting": "[6]", "result": 0.9},
      {"measurement": "ratio", "setting": "[7]", "result": 0.7},
      {"measurement": "ratio", "setting": "[8]", "result": 0.5},
      {"measurement": "ratio", "setting": "[9]", "result": 0.6},
      {"measurement": "ratio", "setting": "[10]", "result": 1.1},
      {"measurement": "ratio", "setting": "BC2T H9E library peptide", "result": 0.6},
      {"measurement": "ratio", "setting": "[11]", "result": 1},
      {"measurement": "ratio", "setting": "BC2T H9D library peptide", "result": 0.5},
      {"measurement": "ratio", "setting": "BC2T S8D library peptide", "result": 0.9},
      {"measurement": "ratio", "setting": "BC2T S8E library peptide", "result": 1}
    ]},
    {"binder": "B5", "values": [
      {"measurement": "Kd", "setting": "[12]", "result": 1.9, "unit": "nM"},
      {"measurement": "koff", "setting": "[12]", "result": 0.0002, "unit": "s⁻¹"},
      {"measurement": "kon", "setting": "[12]", "result": 110000, "unit": "M⁻¹ s⁻¹"},
      {"measurement": "Kd", "setting": "[13]", "result": 0.7, "unit": "nM"},
      {"measurement": "koff", "setting": "[13]", "result": "6.8e-05", "unit": "s⁻¹"},
      {"measurement": "kon", "setting": "[13]", "result": 92000, "unit": "M⁻¹ s⁻¹"},
      {"measurement": "Kd", "setting": "[14]", "result": 2.6, "unit": "nM"},
      {"measurement": "koff", "setting": "[14]", "result": 0.0005, "unit": "s⁻¹"},
      {"measurement": "kon", "setting": "[14]", "result": 190000, "unit": "M⁻¹ s⁻¹"}
    ]}
  ]
}
